In the nanobody polyreactivity screen of Harvey et al. (2022):

Assay: yeast display, Sf9 membrane polyspecificity reagent, FACS + sequencing; frameworks hold sequencing errors
Outline: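 A nanobody's polyreactivity label depends on the gate it was sorted from. Yeast display cells were stained with 10% biotinylated, detergent-solubilized Sf9 membrane reagent for 1 hour at 4 °C, enriched on streptavidin microbeads and sorted by FACS. The low and high (top ~1%) gates were set on anti-HA fluorescence for expression and streptavidin fluorescence for reagent binding.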

Sequence	polyreactivity (PSR sort gate)
QVQLVESGGGLVQAGGSLRLSCAASGSIVGYYAMGWYRQAPGKEREFVARISSSTDSTYYADSVKGRFTISRDNAKKTVYLQMNSLKPEDTAVYYCNADDTWYYGYWGQGTQVTVSS	low polyreactivity
QVQLVESGGGLVQAGGSLRLSCAASGRILSYYPMGWYRQAPGKERELVAVIRRGASTYADSVKGRFTISRDNAKKTVYLQMNILKPEDTAVYYCAAADRDYTTFRYDYWGQGTQVTVSS	low polyreactivity
QVQLVESGGGLVQAGGSLRLSCAASGRTFVYNAMGWYRQAPGNERELVAAITSGGRTYYADSVKGRFTISRDNAKNTVYLQMNSLQPEDTAVYYCAKRFWFNTYAAHPAGFDYWGQGTQVTVSS	low polyreactivity
QVQLVESGGGLVQAGGSLRLSCAASGRTFRVYSMGWYRQAPGKERDFVAAITDSGGRTYYADSVKGRFTISRDNAKNTVYLQMNCLKPEDTAVYYCNAYQYYERYDTYLFRYDYWGQGTQVTVSS	low polyreactivity
QVQLVESGGGLVQAGGSLRLSCAASGSTIVYYAMGWYRQAPGKERELVAAISGSGGSTYYADSVKGRFTISRDNAKNTVYLQMNSLKPEDTAVYYCAKSYGSHRKIRTSFGYWGQGTQVTVSS	high polyreactivity
QVQLVESGGGLVQAGGSLRLSCAASGSTIYGYGMGWYRQAPGKERELVAAITGSGDTTYYADSVKGRFTISRDNAKNNVYLQMNSLKPEDTAVYYCNARWHAEYDYWGQGTQVTVSS	low polyreactivity
QVQLVESGGGLVQAGGSLRLSCAASGFIFYYYDMGWYRQAPGKERELVAAISFDGDSTYYADSVKGRFTISRDNAKNTVYLQMNSLKPEDTAVYYCAARDYRYRYGYWGQGTQVTVSS	high polyreactivity
QVQLVESGGGLVQAGGSLRLSCAASGRTFPYYAMGWYRQAPGKETELVASISYRGGNTYYADSVKGRFTISRDNAKNTVYLQMNSQKPEDTAVYYCAKTGRYSARDDYWGQGTQVTVSS	high polyreactivity
QVQLVESGGGLVKEGGSLRLSCAASGITFSWNAMGWYRQAPGKERELVAAISSSGGSTYYADSVKGRFTISRDYAKNTVYLLMNSLKPEDTAVYFCNADRFWFHWVYSRYHYDYWGQGTQVTVSS	high polyreactivity
QVQLVESGGGLVQAGGSLRLSCAASGLMFSYYAMGWYRQAPGKERELVAAISWNGGSTYYADSVKGRFTISRDNAKNTVYLQMNSLKPEDTAVYYCAVRLDLGWYYYWGQGTQVTVSS	high polyreactivity
QVQLVESGGGLVQAGGSLRLSCAASGRTFYNAMGWYRQAPGKERELVAAISASGARTYYADSVKGRFTISRDNAKNTVYLQMNSLKPEDTAVYYCATKSQRYARDYWGQGTQVTVSS	high polyreactivity
QVQLVESGGGLVQAGGSLRLSCAASGYIFRHYAMGWYRQAPGKERELVAAISGRGGSTYYADSVKGRFTISRDNAKNTVYLQMNSLKPEDTAVYYCAKDRKAVGDFYYWGQGTQVTVSS	high polyreactivity
QVQLVESGGGLVQAGGSLRLSCAASGIIFQFYAMGWYRQAPGKEREFVAAISARSGRTYYADSVKGRFTISRDNAKNTVYLQMNSLKPEDTAVYYCNTAYAYSGRYDYWGQGTQVTVSS	high polyreactivity
QVQLVESGGGLVQAGGSLRLSCAASGSTLTFNAMGWYIQAPGKERELVAAISWSDTDTYYADSVKGRFTISRDNAKNTVYLQMNSLKPEDTAVYYCAATLSAYEMDYWGQATQVTVSS	low polyreactivity
QVQLVESWGGLVQAGGSLRLSCAASGSIFYSNAMGWYSQAPGKERELVAAIRTSAGSTYYADSVKGRFTISRDTAKNTVYLQMNSLKPEDTAVYYCAAVTTYYYYDVSDYAYEFYYWGQGTQVTVSS	low polyreactivity
QVQLVESGGGLVQAGGSLRLSCAASGFIFPYYGMGWYRQAPGKERELVATISRSGGRTYYADSVKGRFTISRDNAKNTVYLQMNSLKPEDTAVYYCARTTPYFYVDWGGYDYWGQGTQVTVSS	high polyreactivity

Sequence	polyreactivity (PSR sort gate)
QVQLVESGGGLVQAGGSLRLSCAASGSTFWNYAMGWYRQAPGKERELVAAITRGSSTNYADSVKGRFTISRDNAKNTVYLQMNSLKPEDTAVYYCANPVGRWSAFYYWGQGTQVTVSS	high polyreactivity
QVQLVESGGGLVQAGGSLRLSCAASGSTFNFYAMGWYRQAPGKDREFVAAITSSGDSTYYADSVKGRFTISRDNAKNTAYLQMNSLKPEDTAVYYCAARLRWRYSYDYWGQGTQVTVSS	high polyreactivity
QVQLVESGGGLVQAGGSLRLSCAASGSIFRWYAMGWYRQAPGKERELVASISSGTRTNYADSVKGRFTISRDNAKNTVYLQMNSLKPEDTAVYYCAAPYVKRWWGYGYWGQGTQVTVSS	high polyreactivity
QVQLVESGGGLVQAGGSLRLSCAASGFIFLGNAMGWYRQAPGKERELVASISRGGSTNYADSVKGRFTISRDNAKNTVYLQMNSLKPEDTAVYYCAADLSDKFGYWGQGTQVTVSS	low polyreactivity
QVQLVESGGGLVQAGGSLRLSCAASGRISDFYAMGWNRQAPGKEREFVAAMSWSGGSTSYADSVKGRFTISRDNAKNTVYLQMNSLKPEDTSVYYCSAKGSRGNSAWYGYWGQGTQVTVSS	high polyreactivity
QVQLVESGGGLVQAGGSLRLSCAASGSIFVANPMGWYRQATGKERELVAVISSGGGSTSYADSVKGRFTISRDNAKNSVYLQMNSLKPEDTAVYYCNRRRYDAGSTMGYWGQGTQVTVSS	low polyreactivity
QVHLVESGGGLVQAGGSLRLSCAASGSILYGNAMGWYRQAPGKERELVAAISYSGGRTYYADSVKGRFTISRDNAKNTVYLQMNSLKPEDTAVYYCAALHSGRVQNFDYWGQGTQVTVSS	high polyreactivity
QVQLVESGGGLVQAGGSLRLSCAASGITIYGYAMGWYRQAPGKERELVAAITRSGGRTYYADSVKGRFTISRDNAKNTVYLQMNSLKPEDTAVYYCAKDMNDETAPYYYWGQGTQVTVSS	high polyreactivity
QVQLVESGGGLVQAGGSLRLSCAASGLTFSYYVMGWYRQAPGKVRELVAAISSGGSTNYADSVKGRFTMSRDNAKNTVYLQLNSLKPEDTAVYYCAARNARADKQCTRWRNYWGQGTQVTVSS	low polyreactivity
QVQLVESGGGLVQAGGSLRLSCAASGNTFLVNVMGWYRQAPGKERELVASITINDGSTYYADSVKGRFTISRDNAKNTVYLQMNSLKPDDTAVYYCAADGVVPGRFFWPAHEYDYWGQGTQVTVSS	low polyreactivity
QVQLVESGGGLVQAGGSLRLSCAASGFIFGYNDMGWSRQAPGKERELVAAINSGGSTYYADSVKGRFTISRDNAKNTVYLQMNSLKPDDTAVYYCAADYGYFEFDYWGQGTQVTVSS	low polyreactivity
QVQLVESGGGLVQAGGSLRLSCAASGFTFVRYTMGWYRQAPGKERELVAAITSGGSTTYADSVKGRFTISRDNAKNTVYLQMNSLKPEDTAVYYCNAVFYLQYETGRELDYWGQGTQVTVSS	high polyreactivity
QVQLVESGGGLVHAGGSLRLSCAASGFILSANDMGWYRQAPGQERELVADIDSSGRTNYADSVKGRFTISRDNAKNTVYLQMISLKPEDTAVYYCATPPDDKGGGYLGFDYWGQGTQVTVSS	low polyreactivity
QVQLVESGGGLVQAGGSLRLSWAASGGNFEYNAMGWYRQAPGKERELVAAITNGGSTNYADSVKGRFSISRDNAKNTVYIQMNSLKPDDTAVYYCATVFFVLPPTRFASWGQGTQVTVSS	low polyreactivity
QVQLVESGGFLVQAGGSLRLSCAASGFTFAKYAMGWSRQAPRKERELVAVITSSGGRTYYADSVKARFTISRDTAKNTVYLQMISLKPEDTAVYYCNAGKYVYATSQYDYWGQGTQVTVSS	high polyreactivity
QVQLEESGGGIVQAGGSLRLSCAASGRTFKLNAMGLYRQAPGKERELVAAISRNGGSTYYADSVKGRFTISRDNAKNTVFLQMNSLKPEDTAVYYCAAVRHGVSLAGYYWGQGTQVTVSS	high polyreactivity
